Experiment [1] deals with T1, Ca^2+ dependant BigK channel derived from heart muscle (myocardial SA channel) (Gallus gallus, UniProt Q8AYS8).
T1 construct: expressed in transfected cells; host or cells: CHO cells force-expressing the channel cDNA, or the endogenous channel of chicken ventricular muscle
Description: single channel current recording by patch clamp (inside-out excised patch, back-fill). Format: cell-based, chicken. Conditions: for inhibiting activity: primary screening, channel's open probability (Po); for level of inhibiting activity compared with GsMTx-4: suggested from time taken for inhibition; for inhibition of wild-type SA channel: wild-type myocardial SA channel, FIG. 13. The method, then:
Activity assay of the peptides was carried out by the most reliable single channel current recording method using the patch clamp method. As the subject of the assay, Ca^2+ dependant BigK channel (Kawakubo et. Am J Physiol, 276: H1827.1999) derived from heart muscle was employed. By applying this channel to the expressed ventricle muscle of chicken or to CHO cells force-expressing the cDNA of this channel with the cell-attached patch clamp method, an inside-out excised patch was formed, and single channel current recordings were taken under a fixed membrane potential. Assuming that the designed synthetic peptide blocks the channel extracellularly the same as GsMTx-4, the space a fixed distance above the glass pipette used for recording was filled with the peptide of a known concentration beforehand, and administration was carried out by back-fill which utilizes diffusion to reach the channel, With this method, the concentration of the peptide inside the pipette reaches equilibrium 15 to 20 minutes after the start of diffusion, and so the dissociation constant of the peptide can be estimated from the inhibition ratio at 20 minutes and onwards. Or, the relative inhibition of the peptide can be estimated from the time taken for inhibition. If the exact dissociation constant of the peptide is to be calculated, it is necessary to prepare an outside-out excised patch, take single channel current recordings, analyze the inhibition effects of various peptides with different concentration, and obtain a dose-inhibition curve; however, as this method requires special technology and as this is the primary screening of the various designed synthetic peptides, the assay method combining the inside-out excised patch and back-fill described above was used to make a rough estimate of the inhibition effects of the peptides. […] Concerning the scale of evaluation, the channel's open probability (Po, indicated in percentage) was used, and the level of inhibition was expressed by the inhibition ratio (percentage) with the control (prior to the administration of the peptide) as the standard, or by the time taken for inhibition.

In experiment [2] the target is T2, STREX-deletion-mutant (Gallus gallus, UniProt Q8AYS8, DEL657-715).
T2 construct: expressed in transfected cells; host or cells: CHO cells (inferred: a deletion mutant must be expressed heterologously, and CHO is the only expression host named for this channel)
Put plainly: single channel current recording, specificity to mechano-sensitive channel. It is filed as cell-based. Conditions: mutant lacking the 59 amino acid STREX sequence, FIG. 13. As for the experimental part:
Activity assay of the peptides was carried out by the most reliable single channel current recording method using the patch clamp method. As the subject of the assay, Ca^2+ dependant BigK channel (Kawakubo et. Am J Physiol, 276: H1827.1999) derived from heart muscle was employed. By applying this channel to the expressed ventricle muscle of chicken or to CHO cells force-expressing the cDNA of this channel with the cell-attached patch clamp method, an inside-out excised patch was formed, and single channel current recordings were taken under a fixed membrane potential. […] If the exact dissociation constant of the peptide is to be calculated, it is necessary to prepare an outside-out excised patch, take single channel current recordings, analyze the inhibition effects of various peptides with different concentration, and obtain a dose-inhibition curve; however, as this method requires special technology and as this is the primary screening of the various designed synthetic peptides, the assay method combining the inside-out excised patch and back-fill described above was used to make a rough estimate of the inhibition effects of the peptides. […]

Where no end group is shown, it is not given here.

This is an account of results in US7396816B2, “Low-molecular weight peptides inhibiting ion channel activity” (Pharmadesign, Inc., priority 2003, dated 2008).

T1 sequence (Q8AYS8 1-1195 isoform Q8AYS8-3): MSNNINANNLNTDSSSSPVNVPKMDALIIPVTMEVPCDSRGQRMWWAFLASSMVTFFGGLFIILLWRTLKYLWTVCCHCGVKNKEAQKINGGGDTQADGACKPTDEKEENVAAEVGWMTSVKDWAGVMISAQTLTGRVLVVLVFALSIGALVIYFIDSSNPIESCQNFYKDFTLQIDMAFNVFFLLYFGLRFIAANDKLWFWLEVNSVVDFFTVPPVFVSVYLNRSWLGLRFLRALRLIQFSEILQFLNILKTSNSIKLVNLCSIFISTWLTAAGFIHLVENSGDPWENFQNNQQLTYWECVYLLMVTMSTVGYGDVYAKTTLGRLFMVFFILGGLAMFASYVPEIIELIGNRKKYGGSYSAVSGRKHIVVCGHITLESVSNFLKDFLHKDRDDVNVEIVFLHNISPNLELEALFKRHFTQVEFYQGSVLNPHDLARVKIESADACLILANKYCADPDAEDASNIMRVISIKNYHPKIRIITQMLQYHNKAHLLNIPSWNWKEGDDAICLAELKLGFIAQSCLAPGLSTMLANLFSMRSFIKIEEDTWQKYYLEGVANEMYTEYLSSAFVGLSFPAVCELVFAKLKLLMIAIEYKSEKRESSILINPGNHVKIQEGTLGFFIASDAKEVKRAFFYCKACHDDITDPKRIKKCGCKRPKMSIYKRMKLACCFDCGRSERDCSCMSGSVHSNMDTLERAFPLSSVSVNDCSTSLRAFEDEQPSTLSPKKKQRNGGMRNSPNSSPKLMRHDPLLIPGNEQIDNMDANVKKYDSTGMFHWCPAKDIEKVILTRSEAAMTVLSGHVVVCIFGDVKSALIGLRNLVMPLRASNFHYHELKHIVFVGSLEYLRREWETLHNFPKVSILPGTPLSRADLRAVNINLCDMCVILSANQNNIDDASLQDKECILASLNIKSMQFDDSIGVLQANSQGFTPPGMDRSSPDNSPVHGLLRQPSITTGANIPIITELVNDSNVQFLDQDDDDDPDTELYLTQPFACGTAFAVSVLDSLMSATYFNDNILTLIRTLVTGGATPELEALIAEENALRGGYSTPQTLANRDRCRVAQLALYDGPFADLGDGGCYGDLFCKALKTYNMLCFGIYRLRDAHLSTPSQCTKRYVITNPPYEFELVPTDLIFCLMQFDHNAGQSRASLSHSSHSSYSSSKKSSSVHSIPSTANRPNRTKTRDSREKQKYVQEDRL
T2 sequence (Q8AYS8 with tags, fused parts or gaps isoform Q8AYS8-3 DEL657-715): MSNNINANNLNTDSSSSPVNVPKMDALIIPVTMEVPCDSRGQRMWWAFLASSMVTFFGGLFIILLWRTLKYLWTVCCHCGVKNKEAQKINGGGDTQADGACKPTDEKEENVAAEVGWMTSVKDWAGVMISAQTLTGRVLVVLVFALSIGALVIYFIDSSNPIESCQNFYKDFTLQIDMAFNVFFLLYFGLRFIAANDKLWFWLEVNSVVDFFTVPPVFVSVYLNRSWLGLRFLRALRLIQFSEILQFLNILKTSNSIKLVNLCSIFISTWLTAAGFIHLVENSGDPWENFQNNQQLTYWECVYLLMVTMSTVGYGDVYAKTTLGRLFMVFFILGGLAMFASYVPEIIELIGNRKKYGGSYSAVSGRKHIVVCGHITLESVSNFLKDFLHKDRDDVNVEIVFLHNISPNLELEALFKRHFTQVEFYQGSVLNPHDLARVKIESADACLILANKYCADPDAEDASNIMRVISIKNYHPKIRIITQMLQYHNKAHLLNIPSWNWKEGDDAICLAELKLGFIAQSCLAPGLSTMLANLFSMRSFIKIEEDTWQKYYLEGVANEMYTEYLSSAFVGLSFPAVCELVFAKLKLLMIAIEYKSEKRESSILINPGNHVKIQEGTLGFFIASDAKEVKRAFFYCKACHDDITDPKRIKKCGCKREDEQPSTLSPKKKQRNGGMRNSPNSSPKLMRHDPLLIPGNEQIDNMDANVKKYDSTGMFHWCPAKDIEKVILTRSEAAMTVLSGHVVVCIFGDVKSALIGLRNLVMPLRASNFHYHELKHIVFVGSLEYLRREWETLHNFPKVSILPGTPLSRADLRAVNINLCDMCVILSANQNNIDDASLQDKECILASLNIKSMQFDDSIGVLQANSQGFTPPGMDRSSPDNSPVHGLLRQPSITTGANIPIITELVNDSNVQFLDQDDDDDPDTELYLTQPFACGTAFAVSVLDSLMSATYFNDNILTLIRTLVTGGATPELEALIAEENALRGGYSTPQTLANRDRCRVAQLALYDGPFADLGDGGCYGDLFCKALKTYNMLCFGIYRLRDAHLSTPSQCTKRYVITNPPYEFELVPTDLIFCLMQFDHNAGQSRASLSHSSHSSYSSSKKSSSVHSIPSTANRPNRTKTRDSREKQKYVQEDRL

“TVP019: mutation in which the 7th K from the N-terminus of TVP004 had been substituted by A (CARPKLAC)”: the “inhibition (channel's open probability Po vs control)” value in experiment [1] (after 14 minutes) is given as “approximately 80%”. Moreover, the inhibiting activity entry in experiment [1] is “found to show inhibiting activity”.
Consider “TVP005: designed peptide from GsMTx-4 comprising loops 2 and 3 (WKCNPNDDKAARPKLKC)”, for which the “inhibition (channel's open probability Po vs control)” value in experiment [1] (after 20 minutes) was “about 60%”. Further, the inhibiting activity entry in experiment [1] was “displayed inhibiting activity”.
Regarding WKCNPNDDKC [TVP003], the “inhibition (channel's open probability Po vs control)” value in experiment [1] (after 8 minutes) was found to be 100%. Also, the dissociation constant result in experiment [1] (estimated from inhibition ratio) is “μM order or lower”. Besides, in experiment [1], the inhibiting activity result is “displayed inhibiting activity”, the “level of inhibiting activity compared with GsMTx-4” value is on record as “the same as or higher than” and the “inhibition of wild-type SA channel” value is given as “inhibit the wild-type SA channel”. In experiment [2], the “inhibition of STREX-deletion-mutant” value is “do not inhibit the STREX-deletion-mutant hardly at all”.
“GsMTx-4 (GCLEFWWKCNPNDDKCCRPKLKCSKLFKLCNFSSG; disulfide (positions not given here); ends not checked; listed as Grammostola spatulata) [reference compound]”: in experiment [1], the “inhibition of wild-type SA channel” value is “inhibit the wild-type SA channel”. The “inhibition of STREX-deletion-mutant” value in experiment [2] is “do not inhibit the STREX-deletion-mutant hardly at all”.
For the substance “TVP004: designed peptide from GsMTx-4 comprising loop 3 (CARPKLKC)”, the “inhibition (channel's open probability Po vs control)” value in experiment [1] (10 μM, after 16 minutes) is given as 95%; in experiment [1] (after 8 minutes) it was “about 60%”. In addition, the inhibiting activity result in experiment [1] is on record as “displayed inhibiting activity”.
For “TVP017: mutation in which the 3rd R from the N-terminus of TVP004 had been substituted by A (CAAPKLKC)”, the “inhibition (channel's open probability Po vs control)” value in experiment [1] (after 6 minutes) amounted to 100%. For the same substance, in experiment [1], the inhibiting activity result is on record as “found to show inhibiting activity” and the “level of inhibiting activity compared with GsMTx-4” value was “higher level than”. Also, the “level of inhibition compared with TVP003” value in experiment [1] (time taken for inhibition) is “even higher level of inhibition than TVP003”.
